Assay results published in the RNAGym collection of RNA variant scans (doi:10.1021/acssynbio.7b00057).

B1: Pistol ribozyme (parent)
chain: GGGUCGUUGUUCCAUAAUCGCGUGGAUAUGGCACGCAAGUUUCUACCGGGCACCGUAAAUGUCCGACUGGAGCCGUUCGGGCGGCUAUAAACAGACCUCAGGCCCGAAGCGUGGCGGCACCUGCCGCCGGUGGUAAAAAAGAUCGGAAGAGCACACGUCU

Variants of: B1
Assay: aptazyme ON/OFF ratio, guanine; higher = stronger switching; co-transcriptional cleavage with and without guanine

Variant | aptazyme ON/OFF ratio
U7C U8G U10C U11G C12U C13U | 1.25
U7C U8A G9C U11G C13U | 1.15
U7G U10C U11A C12U | 1.2
U7A U8C G9U U10A C12G C13A | 1.11
U7A U8C G9U U11A C13U | 1.28
U7C G9U U10C C12G C13G | 1.06
U8C U10C C12U C13G | 1.26
G9A U10C U11C | 1.06
U7A U8A G9A U10C U11C C12U C13U | 1.05
U7G U8G G9U U10C U11G C12U C13U | 1.4
U8G G9C U10A C12U C13A | 1.15
U7C U8C G9C U10G U11A C12U C13A | 1.07
U7C G9C U10C C12G | 1.07
U7G U8C G9U U10A U11C C13G | 1.05
U8A G9C U11A C12G C13A | 1.12
U7A G9C U10A U11C C13A | 1.01
U7A U8C G9A U11C C12G | 1.24
U8C G9C U10A U11C C12U | 1.21
U7A U10G C12A C13U | 1.2
U7C U8G G9A U11C C12A | 1.1
U7C G9A U10C C12A C13U | 1.31
U7A U8G G9A U10A U11G | 1.8
U7C U8C G9A U10G U11A C12U C13U | 1.23
U7G U10G U11C C12A C13U | 1.17

Variant | aptazyme ON/OFF ratio
U7C U10G U11C C12A C13U | 1.18
U7G U8A U10A U11A C12A C13U | 1.08
U8C G9A U10G U11A C12A C13U | 1.15
U7C U8G G9U U10A C12G C13G | 1.18
U7A U8C G9U U10C U11A C12A C13A | 1.12
U7A U8G G9C U10G C12G C13U | 1.44
U7C U8C U11A C13A | 1.21
U8A G9C U11A C13A | 1.16
U7G U10C C12U C13U | 1.07
G9U U10A C12G | 1.41
U7G U10C C12G | 1.26
U8A U10G U11C C13U | 1.04
U7C U8G U10A U11A C12U | 1.57
U7A U8G G9A U10A U11G C13G | 1.27
U7C U8G G9U U10G U11C C12A | 1.18
U7C U10A U11G C12G C13G | 1.16
U7G U10G U11G C12A C13A | 1.08
U7A C12A C13A | 1.4
U8A G9U U11G C12U C13A | 1.41
U8C G9C U11G C12U | 1.12
U7G U8G G9A C12G C13U | 1.3
U7C U8A G9C U10G C12A C13U | 1.13
U7C U8G G9U U10A C12U C13G | 1.2
U7A U8C G9A U10G U11C C12G C13G | 1.09

Variant | aptazyme ON/OFF ratio
U8A G9C U10A U11A C13G | 1.08
U7A G9U U10C U11A C13A | 1.14
U8G U11C C12G | 1.3
U7G U8G G9C U10A U11A C13U | 1.07
U8C U10A U11A C12U C13G | 1.3
U7A G9A U10A C12A C13U | 1.29
U7G G9U U10A U11C C12U C13A | 1.39
U7G U8G C12A | 1.25
U8G G9C U10C U11G C12G | 1.1
G9U U10G U11C C12U C13A | 1.14
U7G U8A G9A U10A U11G C13A | 1.14
U7C U8C G9C U10A C12U C13G | 1.13
U8A G9C U10A U11G C12U C13G | 1.18
U7G G9U U10G U11C | 1.13
U7C G9A U11C C12A C13G | 1.12
U7G U8A G9U U10C U11C C13U | 1.01
U8C G9C U10G C12G C13U | 1.09
U7G G9U U10A U11A C13A | 1.28
U7C G9U U10G U11A C12G | 1.27
U7C U8A G9A U10C C12A | 1.19
U7A U8C U10A C12G C13G | 1.23
U7G U8C U10C U11C C13U | 1.07
U7A U8A U10C U11G C12G C13G | 1.18
U7A G9A U10C U11A | 1.27

Variant | aptazyme ON/OFF ratio
U7A U10G U11G C12A C13A | 1.19
U7G U10A U11C C12G C13G | 1.03
U8G U10A U11A C12U C13U | 1.14
U7C U8G C13U | 2.24
U10A U11A C12G C13G | 1.3
U7A U8A G9A U10A U11A C12U C13U | 1.14
U7G U10C U11A | 1.32
U7C G9A U10G U11C C12U C13G | 1.09
U7C G9U U10C U11A C12G C13U | 1.15
U7C U8G G9A U10C U11A C12A | 1.15
U7C U8G G9C U10A U11A | 1.3
U8C G9C U10C U11A | 1.02
U8A G9C U10C C12G C13G | 1.03
U7A U10C U11G C12U C13A | 1.27
U7A U8A G9U U10C C12A C13G | 1.15
G9U C12A | 1.08
U8G U10A U11C | 1.02
U7A U8C G9C U10G C12A | 1.07
U7C U8C G9A U10G U11A C12A C13G | 1.2
U7C U8C G9A U10A U11C C12G C13U | 1.31
U7A G9C U10C U11A C12U C13G | 1.08
U8A G9A U11G | 1.44
U7G U8A G9C U11G C12A C13G | 1.06
U8A U10A U11A C12U C13A | 1.2

Variant | aptazyme ON/OFF ratio
U7A U8C G9U C12A C13G | 1.19
U7A U8C G9A U10G U11A C12U C13U | 1.11
U8G G9C U10A U11C C13G | 1.04
U7A U8C G9C U10C C12G C13A | 1.04
U8G U10C U11C C13U | 1.04
U7C U8C U10A U11A | 1.63
U7G U8A G9C U11A C12U C13A | 1.03
U8C G9U U11C C12G C13G | 1.03
U7G U8A U11C C13G | 1.11
U7G U8A U10G U11A C12U C13A | 1.37
U7G U8A G9C C12G C13G | 1.04
U7G U8G G9U C12A | 1.56
U7G U8A G9C U11C C13U | 1.05
U7A U8A G9C U10C U11A C12U C13A | 1.03
U7G U8A G9A U10A U11G C12A C13A | 1.07
U8G G9C U11G C12G C13A | 1.09
U7C U8C U10C U11A C12U C13G | 1.25
U7G U8G G9C U11A C12G | 1.17
U7A U8A G9A U11C C12G C13A | 1.1
U7C U8A G9A U10G U11C C13A | 1.05
U7G U8G U10C U11C C12A C13G | 1.23
U7A G9U U10C U11C C12A C13A | 1.03
U7A U8C G9C U10C U11A C12A C13U | 1.03
U8C U10A C12A C13U | 1.18

Variant | aptazyme ON/OFF ratio
U7C U8C G9C U11G C12G C13A | 1.1
U7A U8G G9A U10C U11G C13A | 1.19
U7A U8G G9C U10A U11G C12A C13A | 1.2
U7C G9A U11C C12G | 1.22
U7C U8G G9C U10G U11G C13G | 1.1
G9A U11A C12A C13G | 1.29
U8G G9U U11C C12A C13U | 1.11
U7A U8G U10A C13U | 1.12
U7A U8A G9U U10C U11G C12U C13U | 1.22
U8G U10A U11C C12G C13U | 1.33
U7G U8C G9A U10A U11C | 1.11
U7G U8C G9U U11C C13G | 1.04
U8G U10C U11G | 1.75
U8C G9C U10A U11G C13A | 1.2
U8C G9C U10G U11G C12A C13G | 1.11
U8C G9A U10C U11G C13A | 1.2
U8G U11G C12A C13G | 1.17
U7A U8C G9C U11C C12A | 1.04
U8A G9U U10C U11A C13A | 1.06
U7A U8G G9A U10G C12A C13A | 1.39
U7C G9C U10A C12G C13G | 1.11
G9A U11G C12U C13G | 1.42
U7A U8C G9C C12G C13G | 1.09
U7C U8A U10A U11C C13U | 1.01

Variant | aptazyme ON/OFF ratio
U7A U10C C12U C13U | 1.33
U7A U8A G9U U10G U11C C12G C13U | 1.24
U8C G9A U10C U11C C12G C13G | 1.3
U7A U10A U11G C12A | 1.13
U7A U8C G9A U10C U11C C12A C13A | 1.08
U7G U8G G9A U10G U11G C13G | 1.41
U7G U8C G9U U10C C12U | 1.12
U7A U8C G9C U10C U11C C12G C13G | 1.09
G9U U10G C12U C13G | 1.66
U7C U8G G9A U10C U11C C12A C13A | 1.03
U8G U10A U11A C12G C13G | 1.21
U8G G9C U10C U11A C12A C13U | 1.05
U7C U8G G9C U10C U11G C12A C13G | 1.06
U7A U8A G9A U10A | 1.46
U7C G9C U11G C12A C13G | 1.06
U8C G9C U10A U11A C12U C13U | 1.08
U7C U8G G9U U11G C13G | 1.04
U7A U8C G9A U11G C12U C13G | 1.22
U7G U8A G9C U10G C12G C13G | 1.08
U7G U8G U11A C12A C13G | 1.02
U7C G9C U10C U11G C12A C13U | 1.04
U7A U8G G9C U11C C12G C13G | 1.11
U7A U8G G9C U10G U11C C12U C13U | 1.21
